Ends that are not written are not given here.
B3: S. pneumoniae HtrA PDZ domain (residues 285-393) (domain or fragment, Streptococcus pneumoniae, UniProt A0A0H2ZQD7 285-393, looked up)
chain: KVTRPALGIQMVNLSNVSTSDIRRLNIPSNVTSGVIVRSVQSNMPANGHLEKYDVITKVDDKEIASSTDLQSALYNHSIGDTIKITYYRNGKEETTSIKLNKSSGDLES
notes: HtrA serine protease of Streptococcus pneumoniae, PDZ domain alone, residues 285-393 (the methods print 285-493); cloned downstream of human SUMO1 to give the PDZ with no overhang; source: E. coli BL21(DE3), purified (Ni column, ULP1 cleavage, Ni column, preparative sizing column); not shown: 6xHis, N-terminal, cleaved; hSUMO1, N-terminal, cleaved

Assays:
[1] = target: the molecule itself; test: SEC; size-exclusion chromatography of HtrA WT, HtrA S234A, β-casein and a mixture of HtrA S234A with excess β-casein
[2] = target: B3; test: NMR titration; 250 μM 15N-labeled HtrA PDZ titrated with recombinant β-casein fragments (final 400 μM); 15N-HSQC, global fit of CSPs; conditions: both partners purified
[3] = target: T1, S. pneumoniae HtrA protease domain (PD, residues 59-285) (Streptococcus pneumoniae, UniProt A0A0H2ZQD7 59-285); test: NMR titration; 500 μM 15N-labeled PDZ titrated with unlabeled PD (0.5-4 mM); 15N-HSQC at 900 MHz, 35°C; 50 mM sodium phosphate pH 6, 50 mM NaCl; global fit of CSPs, single-site model; conditions: both partners purified
T1 construct: HtrA serine protease of Streptococcus pneumoniae, protease domain alone, residues 59-285; 15N-labeled where it is the observed partner of an NMR titration; also called HtrA PD; PD WT; source: E. coli BL21(DE3), purified (Ni column, preparative sizing column)
T1 sequence: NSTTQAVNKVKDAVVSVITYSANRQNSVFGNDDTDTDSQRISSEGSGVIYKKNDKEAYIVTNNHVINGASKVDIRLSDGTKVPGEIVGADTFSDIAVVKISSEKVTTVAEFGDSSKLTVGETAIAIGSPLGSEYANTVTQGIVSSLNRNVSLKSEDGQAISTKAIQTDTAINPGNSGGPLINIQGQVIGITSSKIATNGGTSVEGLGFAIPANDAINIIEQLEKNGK

[4] = target: T1, S. pneumoniae HtrA protease domain (PD, …); test: NMR titration; 500 μM 15N-labeled PD titrated with unlabeled PDZ (0.25-4 mM); 15N-HSQC at 900 MHz, 35°C; 50 mM sodium phosphate pH 6, 50 mM NaCl; global fit of CSPs, single-site model; conditions: both partners purified

B1: S. pneumoniae HtrA S234A full ectodomain (residues 59-393) (enzyme)
chain: NSTTQAVNKVKDAVVSVITYSANRQNSVFGNDDTDTDSQRISSEGSGVIYKKNDKEAYIVTNNHVINGASKVDIRLSDGTKVPGEIVGADTFSDIAVVKISSEKVTTVAEFGDSSKLTVGETAIAIGSPLGSEYANTVTQGIVSSLNRNVSLKSEDGQAISTKAIQTDTAINPGNAGGPLINIQGQVIGITSSKIATNGGTSVEGLGFAIPANDAINIIEQLEKNGKVTRPALGIQMVNLSNVSTSDIRRLNIPSNVTSGVIVRSVQSNMPANGHLEKYDVITKVDDKEIASSTDLQSALYNHSIGDTIKITYYRNGKEETTSIKLNKSSGDLES
notes: HtrA serine protease of Streptococcus pneumoniae, full ectodomain, residues 59-393, catalytic serine changed to alanine; the mutant's own cloning is not described; also called full HtrA S234A ectodomain; catalytic mutant; source: E. coli, purified (monomer and hexamer separated by size-exclusion chromatography)
- stoichiometry N [1]: 6

B2: β-casein residues 21-70 (domain or fragment, bovine, UniProt P02666 21-70, looked up)
chain: LNVPGEIVESLSSSEESITRINKKIEKFQSEEQQQTEDELQDKIHPFAQT
modifications: ends and bridges not checked
notes: bovine β-casein, residues 21-70; also called N-terminal segment (21-70); source: recombinantly produced in-house with the hSUMO1 system (as for the HtrA PDZ)
- Kd [2]: 215 ± 35 µM

Binder: B3
- Kd [3]: 1000 ± 500 µM
- Kd [4]: 480 ± 43 µM

From publication PMC12745498, “Streptococcus pneumoniae HtrA is a dynamic and monomeric virulence factor capable of forming larger oligomeric complexes” (Protein Science : A Publication of the Protein Society, 2025)
